The record followed here is patent publication US20200024322A1 (Eli Lilly, published 2020).

One may read the Ki as a measure of affinity in units of concentration, obtained from inhibition or displacement. A high value points to weaker binding.

Numbered stars: 1 amine (or outer) side, 2 acyl side, 3 side chain; on linkers, the order of the positions; unused ones are H or OH. Square brackets hold non-standard residues; d marks the D form. Side chains are listed from the residue outwards. Ends that are not written are not given here. * marks the point of attachment. C20 diacid = O=C(O)CCCCCCCCCCCCCCCCCCC(=O)*; γGlu = O=C(O)[C@H](CCC(=O)[*:2])N[*:1]; AEEA = NCCOCCOCC(=O)O; Aib = CC(C)(N)C(=O)O

T1: human GIP receptor (human, UniProt P48546 22-466)
T1 construct: whole, on cells; Used as crude membranes of stably transfected CHO cells; also called hGIPR
T1 sequence (looked up): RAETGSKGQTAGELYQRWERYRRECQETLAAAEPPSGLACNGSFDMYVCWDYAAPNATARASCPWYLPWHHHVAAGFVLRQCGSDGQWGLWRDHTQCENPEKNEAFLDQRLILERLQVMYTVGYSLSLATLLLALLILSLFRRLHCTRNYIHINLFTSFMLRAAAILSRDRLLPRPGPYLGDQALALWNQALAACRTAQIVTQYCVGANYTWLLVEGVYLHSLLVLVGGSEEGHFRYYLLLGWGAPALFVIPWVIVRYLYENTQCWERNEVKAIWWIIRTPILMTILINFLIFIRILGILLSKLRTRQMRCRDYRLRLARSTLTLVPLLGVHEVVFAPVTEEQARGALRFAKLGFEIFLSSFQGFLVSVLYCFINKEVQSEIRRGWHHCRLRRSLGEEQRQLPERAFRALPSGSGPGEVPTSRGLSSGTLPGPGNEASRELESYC

B1: Example 36 (peptide)
peptide: Y[Aib]EGTFTSDYSILLDKIAQ[Aib]AFIEYLK([AEEA-AEEA-γGlu-C20 diacid])EGGPSSGAPPPS-NH2
modifications: N-terminus assumed
SMILES: CC[C@H](C)[C@H](NC(=O)[C@H](CCCCN)NC(=O)[C@H](CC(=O)O)NC(=O)[C@H](CC(C)C)NC(=O)[C@H](CC(C)C)NC(=O)[C@@H](NC(=O)[C@H](CO)NC(=O)[C@H](Cc1ccc(O)cc1)NC(=O)[C@H](CC(=O)O)NC(=O)[C@H](CO)NC(=O)[C@@H](NC(=O)[C@H](Cc1ccccc1)NC(=O)[C@@H](NC(=O)CNC(=O)[C@H](CCC(=O)O)NC(=O)C(C)(C)NC(=O)[C@@H](N)Cc1ccc(O)cc1)[C@@H](C)O)[C@@H](C)O)[C@@H](C)CC)C(=O)N[C@@H](C)C(=O)N[C@@H](CCC(N)=O)C(=O)NC(C)(C)C(=O)N[C@@H](C)C(=O)N[C@@H](Cc1ccccc1)C(=O)N[C@H](C(=O)N[C@@H](CCC(=O)O)C(=O)N[C@@H](Cc1ccc(O)cc1)C(=O)N[C@@H](CC(C)C)C(=O)N[C@@H](CCCCNC(=O)COCCOCCNC(=O)COCCOCCNC(=O)CC[C@H](NC(=O)CCCCCCCCCCCCCCCCCCC(=O)O)C(=O)O)C(=O)N[C@@H](CCC(=O)O)C(=O)NCC(=O)NCC(=O)N1CCC[C@H]1C(=O)N[C@@H](CO)C(=O)N[C@@H](CO)C(=O)NCC(=O)N[C@@H](C)C(=O)N1CCC[C@H]1C(=O)N1CCC[C@H]1C(=O)N1CCC[C@H]1C(=O)N[C@@H](CO)C(N)=O)[C@@H](C)CC
B2: Example 40 (peptide)
peptide: Y[Aib]EGTFTSDYSILLDKIAQ[Aib]AFIEYLIEGGK([AEEA-AEEA-γGlu-C20 diacid])SSGAPPPS-NH2
modifications: N-terminus assumed
SMILES: CC[C@H](C)[C@H](NC(=O)[C@H](CCCCN)NC(=O)[C@H](CC(=O)O)NC(=O)[C@H](CC(C)C)NC(=O)[C@H](CC(C)C)NC(=O)[C@@H](NC(=O)[C@H](CO)NC(=O)[C@H](Cc1ccc(O)cc1)NC(=O)[C@H](CC(=O)O)NC(=O)[C@H](CO)NC(=O)[C@@H](NC(=O)[C@H](Cc1ccccc1)NC(=O)[C@@H](NC(=O)CNC(=O)[C@H](CCC(=O)O)NC(=O)C(C)(C)NC(=O)[C@@H](N)Cc1ccc(O)cc1)[C@@H](C)O)[C@@H](C)O)[C@@H](C)CC)C(=O)N[C@@H](C)C(=O)N[C@@H](CCC(N)=O)C(=O)NC(C)(C)C(=O)N[C@@H](C)C(=O)N[C@@H](Cc1ccccc1)C(=O)N[C@H](C(=O)N[C@@H](CCC(=O)O)C(=O)N[C@@H](Cc1ccc(O)cc1)C(=O)N[C@@H](CC(C)C)C(=O)N[C@H](C(=O)N[C@@H](CCC(=O)O)C(=O)NCC(=O)NCC(=O)N[C@@H](CCCCNC(=O)COCCOCCNC(=O)COCCOCCNC(=O)CC[C@H](NC(=O)CCCCCCCCCCCCCCCCCCC(=O)O)C(=O)O)C(=O)N[C@@H](CO)C(=O)N[C@@H](CO)C(=O)NCC(=O)N[C@@H](C)C(=O)N1CCC[C@H]1C(=O)N1CCC[C@H]1C(=O)N1CCC[C@H]1C(=O)N[C@@H](CO)C(N)=O)[C@@H](C)CC)[C@@H](C)CC
B3: Example 37 (peptide)
peptide: Y[Aib]EGTFTSDYSILLDKIAQ[Aib]AFIEYLIK([AEEA-AEEA-γGlu-C20 diacid])GGPSSGAPPPS-NH2
modifications: N-terminus assumed
SMILES: CC[C@H](C)[C@H](NC(=O)[C@H](CCCCN)NC(=O)[C@H](CC(=O)O)NC(=O)[C@H](CC(C)C)NC(=O)[C@H](CC(C)C)NC(=O)[C@@H](NC(=O)[C@H](CO)NC(=O)[C@H](Cc1ccc(O)cc1)NC(=O)[C@H](CC(=O)O)NC(=O)[C@H](CO)NC(=O)[C@@H](NC(=O)[C@H](Cc1ccccc1)NC(=O)[C@@H](NC(=O)CNC(=O)[C@H](CCC(=O)O)NC(=O)C(C)(C)NC(=O)[C@@H](N)Cc1ccc(O)cc1)[C@@H](C)O)[C@@H](C)O)[C@@H](C)CC)C(=O)N[C@@H](C)C(=O)N[C@@H](CCC(N)=O)C(=O)NC(C)(C)C(=O)N[C@@H](C)C(=O)N[C@@H](Cc1ccccc1)C(=O)N[C@H](C(=O)N[C@@H](CCC(=O)O)C(=O)N[C@@H](Cc1ccc(O)cc1)C(=O)N[C@@H](CC(C)C)C(=O)N[C@H](C(=O)N[C@@H](CCCCNC(=O)COCCOCCNC(=O)COCCOCCNC(=O)CC[C@H](NC(=O)CCCCCCCCCCCCCCCCCCC(=O)O)C(=O)O)C(=O)NCC(=O)NCC(=O)N1CCC[C@H]1C(=O)N[C@@H](CO)C(=O)N[C@@H](CO)C(=O)NCC(=O)N[C@@H](C)C(=O)N1CCC[C@H]1C(=O)N1CCC[C@H]1C(=O)N1CCC[C@H]1C(=O)N[C@@H](CO)C(N)=O)[C@@H](C)CC)[C@@H](C)CC
B4: Example 39 (peptide)
peptide: Y[Aib]EGTFTSDYSILLDKIAQ[Aib]AFIEYLIEGK([AEEA-AEEA-γGlu-C20 diacid])PSSGAPPPS-NH2
modifications: N-terminus assumed
SMILES: CC[C@H](C)[C@H](NC(=O)[C@H](CCCCN)NC(=O)[C@H](CC(=O)O)NC(=O)[C@H](CC(C)C)NC(=O)[C@H](CC(C)C)NC(=O)[C@@H](NC(=O)[C@H](CO)NC(=O)[C@H](Cc1ccc(O)cc1)NC(=O)[C@H](CC(=O)O)NC(=O)[C@H](CO)NC(=O)[C@@H](NC(=O)[C@H](Cc1ccccc1)NC(=O)[C@@H](NC(=O)CNC(=O)[C@H](CCC(=O)O)NC(=O)C(C)(C)NC(=O)[C@@H](N)Cc1ccc(O)cc1)[C@@H](C)O)[C@@H](C)O)[C@@H](C)CC)C(=O)N[C@@H](C)C(=O)N[C@@H](CCC(N)=O)C(=O)NC(C)(C)C(=O)N[C@@H](C)C(=O)N[C@@H](Cc1ccccc1)C(=O)N[C@H](C(=O)N[C@@H](CCC(=O)O)C(=O)N[C@@H](Cc1ccc(O)cc1)C(=O)N[C@@H](CC(C)C)C(=O)N[C@H](C(=O)N[C@@H](CCC(=O)O)C(=O)NCC(=O)N[C@@H](CCCCNC(=O)COCCOCCNC(=O)COCCOCCNC(=O)CC[C@H](NC(=O)CCCCCCCCCCCCCCCCCCC(=O)O)C(=O)O)C(=O)N1CCC[C@H]1C(=O)N[C@@H](CO)C(=O)N[C@@H](CO)C(=O)NCC(=O)N[C@@H](C)C(=O)N1CCC[C@H]1C(=O)N1CCC[C@H]1C(=O)N1CCC[C@H]1C(=O)N[C@@H](CO)C(N)=O)[C@@H](C)CC)[C@@H](C)CC
B5: Example 41 (peptide)
peptide: Y[Aib]EGTFTSDYSILLDKIAQ[Aib]AFIEYLIEGGPK([AEEA-AEEA-γGlu-C20 diacid])SGAPPPS-NH2
modifications: N-terminus assumed
SMILES: CC[C@H](C)[C@H](NC(=O)[C@H](CCCCN)NC(=O)[C@H](CC(=O)O)NC(=O)[C@H](CC(C)C)NC(=O)[C@H](CC(C)C)NC(=O)[C@@H](NC(=O)[C@H](CO)NC(=O)[C@H](Cc1ccc(O)cc1)NC(=O)[C@H](CC(=O)O)NC(=O)[C@H](CO)NC(=O)[C@@H](NC(=O)[C@H](Cc1ccccc1)NC(=O)[C@@H](NC(=O)CNC(=O)[C@H](CCC(=O)O)NC(=O)C(C)(C)NC(=O)[C@@H](N)Cc1ccc(O)cc1)[C@@H](C)O)[C@@H](C)O)[C@@H](C)CC)C(=O)N[C@@H](C)C(=O)N[C@@H](CCC(N)=O)C(=O)NC(C)(C)C(=O)N[C@@H](C)C(=O)N[C@@H](Cc1ccccc1)C(=O)N[C@H](C(=O)N[C@@H](CCC(=O)O)C(=O)N[C@@H](Cc1ccc(O)cc1)C(=O)N[C@@H](CC(C)C)C(=O)N[C@H](C(=O)N[C@@H](CCC(=O)O)C(=O)NCC(=O)NCC(=O)N1CCC[C@H]1C(=O)N[C@@H](CCCCNC(=O)COCCOCCNC(=O)COCCOCCNC(=O)CC[C@H](NC(=O)CCCCCCCCCCCCCCCCCCC(=O)O)C(=O)O)C(=O)N[C@@H](CO)C(=O)NCC(=O)N[C@@H](C)C(=O)N1CCC[C@H]1C(=O)N1CCC[C@H]1C(=O)N1CCC[C@H]1C(=O)N[C@@H](CO)C(N)=O)[C@@H](C)CC)[C@@H](C)CC

The target of one assay is T2, human glucagon receptor (human, UniProt P47871 26-477).
T2 construct: whole, on cells; Used as crude membranes of stably transfected HEK293 cells; also called hGcgR; hGLcgR
T2 sequence (P47871 26-477): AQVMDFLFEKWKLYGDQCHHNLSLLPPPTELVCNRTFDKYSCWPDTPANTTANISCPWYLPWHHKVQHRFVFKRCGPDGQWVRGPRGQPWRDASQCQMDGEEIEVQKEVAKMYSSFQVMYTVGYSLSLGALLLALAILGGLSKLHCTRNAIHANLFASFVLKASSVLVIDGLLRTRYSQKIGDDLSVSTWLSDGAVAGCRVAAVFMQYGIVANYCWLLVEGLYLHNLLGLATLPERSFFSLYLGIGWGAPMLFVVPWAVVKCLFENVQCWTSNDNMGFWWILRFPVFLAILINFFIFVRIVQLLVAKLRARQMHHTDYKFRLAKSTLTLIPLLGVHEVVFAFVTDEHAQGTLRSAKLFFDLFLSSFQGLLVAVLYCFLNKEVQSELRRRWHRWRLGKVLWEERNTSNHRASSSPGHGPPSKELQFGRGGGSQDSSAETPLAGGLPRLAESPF
Put plainly: SPA, [125I]-Gcg displacement, hGcgR membranes.
B1 had an inhibition constant (Ki) of 413 nM.

In the case of B2, the affinity, expressed as Ki, was 150 nM.

With B3, affinity was put at a Ki of 255 nM.

Regarding B4, the affinity, expressed as Ki, was 161 nM.

Regarding B5, the inhibitory constant (Ki) amounted to 165 nM.

Another assay has as its target T1, human GIP receptor. Put plainly: SPA, [125I]-GIP displacement, hGIPR membranes.
For the molecule B1, the inhibition constant (Ki) came out at 0.141 nM.

Turning to B2, the inhibitory constant (Ki) was found to be 0.0345 nM.

For the molecule B3, the inhibition constant (Ki) came out at 0.0523 nM.

In turn, B4 yielded a Ki of 0.0499 nM.

For the molecule B5, the affinity corresponds to a Ki of 0.0551 nM.

In a further assay the target is T3, human GLP-1 receptor (human, UniProt P43220 24-463).
T3 construct: whole, on cells; Used as crude membranes of stably transfected HEK293 cells; also called hGLP1R; hGLP-1R
The experiment in a line: SPA, [125I]-GLP-1 displacement, hGLP-1R membranes.
In turn, B1 came in with a Ki of 16.4 nM.

The molecule B2 displayed an inhibition constant Ki of 7.56 nM.

In turn, B3 gave a Ki of 3.84 nM.

In turn, B4 registered a Ki of 16.8 nM.

The molecule B5 registered a Ki of 13.4 nM.
